B1: c1A12: chimeric anti-hOPN mAb between human and murine; VH SEQ ID NO: 4, VL SEQ ID NO: 6, human constant region (antibody, V domains shown)
VH: QVQLEQSGPELVKPGASVKMSCKSSGYTFTTYVMHWVKQKPGQGLEWIGYINPYNDGSKYNEKFKGKATLTSDKSSNTAYMELSSLTSEDSAVYYCASHYGGSPAYWGQGTLVTVSA
VL: DILMTQTPLSLPVSLGDQASISCRSSQSLVHSNGNTYLHWYLQKPGQSPKLLIYKVSNRFSGVPDRFSGSGSGTDFTLKISRVEAEDLGVYFCSQSTHVPWTFGGGTKLEIKR
modifications: human constant regions; amino acid sequence of the heavy chain variable region in 1A12; amino acid sequence of the light chain variable region in 1A12
B2: humanized anti-hOPN antibody h1A12 (h1A12Hb/h1A12Lb) (antibody, human IgG1, kappa, V domains shown)
VH: QVQLVQSGAEVKKPGASVKVSCKSSGYTFTTYVMHWVKQAPGQGLEWIGYINPYNDGSKYNEKFKGRVTITSDKSASTAYMELSSLRSEDTAVYYCASHYGGSPAYWGQGTLVTVSS
VL: DVLMTQSPLSLPVTLGQPASISCRSSQSLVHSNGNTYLHWFQQRPGQSPKLLIYKVSNRFSGVPDRFSGSGSGTDFTLKISRVEAEDVGVYYCSQSTHVPWTFGGGTKVEIKR
notes: Tested as COS-1 supernatant in the ELISA; also called humanized antibody 1A12
B3: h1A12: humanized anti-hOPN mAb; VH SEQ ID NO: 19, VL SEQ ID NO: 21, human constant region (antibody, V domains shown)
VH: B2 VH
VL: B2 VL
modifications: human constant regions; amino acid sequence of the VH in humanized anti-OPN antibody H1A12; amino acid sequence of the VL in humanized anti-OPN antibody H1A12

Legend:
rabbit cornea = test: OPN-induced rabbit corneal neovascularization; assay type: in vivo; conditions: pellet with 200 ng hOPN and 1 μg antibody; for area of neovascularization / length of the newly generated blood vessels: relative to irrelevant antibody group, P<0,01
Experimental: The Hydron powder was dissolved in anhydrous ethanol under sterile condition to the final concentration of 12% (w/v), and dissolved with agitation under 37° C. to formulate the 12% Hydron cast solution, which was then stored at room temperature. A quota of sucralfate powder formulated in sterile Milli Q water under sterile conditions as a suspension with the final concentration of 100 μg/μl, which was stored at 4° C., and vortexed to homogeneous intermediately before use. Sustained-release pellets were prepared to each containing 200 ng hOPN and 50 μg sucralfate and, for the antibody groups, 1 μg anti-OPN antibodies, and for the control, the irrelevant antibody. The 12% Flydron east solution and the hOPN-sucralfate-PBS blend were mixed as the ratio of 1:1 (volume ratio), vortexed for 1 min. Then 5 μl mixed Hydron-sucralfate-hOPN solution was added onto a sterilized Parafilm surface, dried for about 30 min on a super-clean bench for a complete polymerization. The polymers were then shaped into uniform circular granules with a 2 mm diameter using an eye tweezers. The granules were stored at −20′C. Animals were grouped in the same way as in Experiment II-3, each group consisting of four eyes.
The rabbit was anesthetized at ear edge vein with 3% sodium pentobarbital (1 ml/kg body weight) and on both corneal surfaces with 1% tetracaine. The thickness of the cornea was measured using an ultrasonic cornea thickness gauge. A 3 mm half-depth incision was made at the center of the cornea using an ophthalmic knife, and an undermining tunnel toward the 12 o'clock or 3 o'clock position on the corneoscleral margin was made using a 2 mm-wide scleral tunnel knife, whereby the tunnel lied within the corneal layer with the top of the tunnel about 1 mm distant from the limbus corneae. The Hydron/sucralfate sustained-release pellet was implanted into the top of tunnel using micro-tweezers. The cuts were treated with chlortetracycline eye ointment after the surgery. From Day 1 after the surgery, the double-blinded observer observed the rabbit conical neovascularization under the slit-lamp each day, until the Day 10, The length (VL) and the vascular clock angle (CN, 30°=1CN) of the longest vessel were measured, and the area of neovascularization was calculated according to the following formula:
Area (mm^2)=0.2×π×VL (mm)×CN (mm)

MDA-MB-435s cells [1] = test: Clone formation on soft agar assay; assay type: cell-based; conditions: antibody 25 μg/ml every other day; 3 weeks
Experimental: The assay of clone formation on soft agar was conducted using a double-layer soft agar system. 2.5% melted agar was mixed the DMEM medium pre-warmed at 37° C. to formulate a 0.5% agar solution, which was then diluted with DMEM to a 0.3% agar solution. To each well of a 24-well plate was added 500 μl of a 0.5% agar solution, which was allowed to gel at 4° C., and then kept warm in an incubator at 37°C. The MDA-MB-435s cells were detached using 0.2% .EDTA and suspended in the 0.3% agar solution at the concentration of 5×10^3 cells/ml. 500 μl of the cell suspension was added each well and left to gel. From the second day, the cells were respectively treated with 1A12, c1A12, h1A12 or the irrelevant antibody (23C3D3) (25 μg/ml) every other day. After 3 weeks, the colony formation ability was evaluated by measuring the size of colonies containing more than 10 cells.

[2] = tested on: human vascular endothelial cell (HUVEC); test: HUVEC proliferation by 3H-TdR incorporation; assay type: cell-based; conditions: M200+1% BSA+OPN+antibody; 24 hours
Experimental: HUVEC cell proliferation was measured by the ^3H-TdR incorporation method to determine the protective effect of OPN on cell survival and the inhibitory effect of the anti-OPN antibodies on the OPN protection. Each well of a 96-well plate was inoculated with 2×10^4 HUVECs and cultured in a complete medium for 24 hours. The cells were then treated as following for 24 hours: […]
iv. M200+1% BSA+OPN+murine anti-OPN antibody 1A12 v. M200+1% , BSA+OPN+human-murine chimeric anti-OPN antibody c1A12 vi. M200+1% BSA+OPN+humanized anti-OPN antibody h1A12 vii. M200+1% BSA+OPN+irrelevant antibody
24 hours later, 1 uCi/well ^3H-thymidine was added and, after being incubated at 37° C. for 6 hours, washed once with PBS. The plate was treated with ice-cold 10% trichloroacetic acid/H2O at 4° C. for 10 min, and then washed for two times with, ice-cold ddH2O. Cytolysis was conducted by adding into each well 0.1 ml of 0.5 N NaOH, 0.5% SDS at room temperature for 10 min. After adding 0.2 ml of 0.5 N HCl and mixing, the cells were collected using a multiple cell collector.

HUVECs = test: Formation of capillary-like structure in HUVECs on matrigel; assay type: cell-based, human
Experimental: HUVECs were cultured in the M200 medium containing LCGS to 80% confluence. The matrigel stored at −20° C. was took out the day before experiment and naturally thawed at 4° C. for 3 to 12 hours. To each well of a 96-welt plate was added […] using a pre-cooled pipet with carefully removing the bubbles, wherein the whole procedure was carried on ice. The loaded plate was incubated at 37° C. for 1 hour to gel the matrigel. To each well, 100 μl HUVECs (2×10^4/well) was gently added onto the surface of matrigel. To the treatment groups were further added the anti-hOPN antibodies 1A12, c1A12 and h1A12. The plate was incubated at 37° C. for […], and the formation of the capillary-like structure was observed 6 hours after.

MDA-MB-435s cells [3] = test: Cell invasion assay (Transwell, Matrigel); assay type: cell-based; conditions: antibody 25 μg/ml; in the presence of hOPN; 24 hours
Experimental: The assay of cell invasion was carried out using the Transwell system (Corning) with the pore size of […]. The basement membrane of the upper chamber was coated with the artificial matrix gel (Matrigel). After being dried in a flame hood, the matrigel was hydrated with DMEM at 37° C. for 1 hour. MDA-MB-435s cells were detached using 0.2% EDTA and suspended in 0.25% BSA/DMEM at the concentration of 5×10^5 cells/ml. 100 μl of the obtained cell suspension as well as the following 25 μg/nil of antibodies were respectively added into the upper chamber of each well: 1A12 (murine anti-human OPN antibody), c1A12 (human-mouse chimeric antibody), h1A12 (humanized antibody), and 23C3 (irrelevant antibody control). To lower chamber, 0.25% of BSA/DMEM (with or without OPN) was added. The system was then incubated in incubator at 37° C. for 24 hours. After that, the cells remaining in the upper chamber was wiped away using a cotton swab, and the cells penetrate through the basement membrane into the lower chamber were washed with PBS, fixed with 1% formaldehyde, and then stained with 0.5% crystal violet. The cells were counted in the field at 200× magnification under a microscope.

MDA-MB-435s cells [4] = test: Scratch wound healing assay; assay type: cell-based; conditions: antibody 25 μg/ml; 24 hours
Experimental: The MDA-MB-435s cells cultured in a 12-wells plate to almost confluent (90%) washed with PBS and starved overnight with serum-free DMEM. Scratches were made on the cell monolayer using a 10 μl pipette, and PBS was added to wash away the floating cells. The test groups were treated with 25 μg/ml of the murine anti-human OPN antibody 1A12, the human-murine chimeric antibody c1A12 and the humanized antibody h1A12, and the control group, 25 μg/ml of the irrelevant antibody. The cells were incubated in an incubator at 37° C. for 24 hours. The result was expressed as the number of the cells that cross the base line.

MDA-MB-435s cells [5] = test: Cell adhesion assay on hOPN-coated plate; assay type: cell-based; conditions: antibody 25 μg/ml; plate coated with 10 μg/ml hOPN; 2 hrs
Experimental: MDA-MB-435s was purchased from the Institute of Cell Biology of Chinese Academy of Sciences (Shanghai, China), and 23C3D3 was used as the irrelevant antibody.
A 96-well plate (Greiner) was coated with 10 μg/ml hOPN (prepared in Example 3) or BSA (SIGMA) at 4° C. overnight, and was then blocked with 1% BSA/PBS at 37° C. for 1 hour to block any non-specific binding sites. The MDA-MB-435s cells were detached using 0.2% EDTA and then re-suspended in 0.25% BSA/DMEM at the concentration of 5×10^5 cells/ml. To each well, 100 μl (5×10^4) MDA-MB-435s cells were added in the presence of various anti-OPN antibodies (25 μg/ml) murine anti-human OPN antibody 1A12, the human-murine chimeric antibody c 1A12 or the humanized antibody h1A12 as treatment groups and the irrelevant antibody 23C3 as control (25 μg/ml). After incubation at 37° C. for 2 hrs, the medium was removed and washed twice with PBS gently. The adherent cells were fixed in 1% formaldehyde at 4° C. for 10 minutes, stained with 0.5% crystal violet after washed with PBS and lysed with 2% Triton X-100 (50 μl). The absorbance was measured at 595 nm.

[6] = molecular target: T1, human osteopontin (human OPN protein) (human, UniProt P10451 17-314, limits assumed); test: ELISA, plate coated with OPN 2 ug/ml, COS-1 supernatant, HRP-rabbit anti-human IgG
T1 construct: The isoform follows from the 963 bp PCR fragment and is not otherwise stated; also called hOPN
Experimental: An ELISA plate was coated with 2 ug/ml OPN. The binding activity of the humanized antibody obtained from the transfection was detected by ELISA. […] The amino acid sequences of the h1A12HBb's and the h1A12Lb's variable regions were shown in FIG. 4, SEQ ID NO: 18 and SEQ ID NO: 19 show the nucleotide sequence and the amino acid sequence of h1A12Hb's variable region respectively. SEQ ID NO: 20 and SEQ ID NO: 21 show the nucleotide sequence and the amino acid sequence of h1A12Lb's variable region respectively. The genes of the humanized antibody's VH and VL (h1A12VHb/h1A12VLb) were synthesized respectively. […] Then, expression vectors of the light and the heavy chain were used to co-transfect the COS-1 cells. The antibody's antigen-binding activity was determined by ELISA. Specifically, an ELISA plate was coated with OPN protein (2 ug/ml) coated at 4° C. overnight, and was blocked with 2% BSA-PBS for 2 h at 37° C. […] HRP-rabbit anti-human IgG was added into the plate for binding reaction (incubated at 37° C. for 1 h).

T1 sequence (P10451 17-314 limits assumed): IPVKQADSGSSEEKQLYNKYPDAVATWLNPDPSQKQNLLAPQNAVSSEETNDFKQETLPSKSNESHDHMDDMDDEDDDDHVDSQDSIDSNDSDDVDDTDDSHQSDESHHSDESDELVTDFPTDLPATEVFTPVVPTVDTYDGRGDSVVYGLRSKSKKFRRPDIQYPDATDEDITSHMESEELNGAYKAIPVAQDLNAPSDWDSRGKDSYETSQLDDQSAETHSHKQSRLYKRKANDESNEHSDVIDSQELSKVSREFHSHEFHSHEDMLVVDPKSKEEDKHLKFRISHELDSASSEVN

Molecule	corneal neovascularization relative to the OPN group (rabbit cornea)	area of neovascularization (rabbit cornea)	length of the newly generated blood vessels (rabbit cornea)	inhibition of clone size formed by MDA-MB-435s cells on soft agar (MDA-MB-435s cells [1])	3H-TdR incorporation relative to the OPN group [2]	potency of forming the capillary-like structure in HUVECs (HUVECs)	blocking of invasion of the basement membrane by MDA-MB-435s (MDA-MB-435s cells [3])	inhibition of the reparation of the scratches and damages (MDA-MB-435s cells [4])	blocking of the binding between MDA-MB-435s cells and hOPN (MDA-MB-435s cells [5])	binding result [6]
B1	significantly reduced	significantly shrunk	significantly reduced	no significant differences	significantly lower	reduce	effectively block	effectively inhibit	effectively block	
B2										binds
B3	significantly reduced	significantly shrunk	significantly reduced	no significant differences	significantly lower	reduce	effectively block	effectively inhibit	effectively block	
